Results as given in patent US20230340555A1, “PRODUCTION OF GLYCOSYLATED CANNABINOIDS” (WILLOW BIOSCIENCES, INC., priority 2020, published 2023).

B1: AtUGT76D1: UDP-glycosyl transferase from Arabidopsis thaliana, amino acid sequence SEQ ID NO: 30 (protein, listed as Arabidopsis thaliana)
chain: MAEIRQRRVLMVPAPFQGHLPSMMNLASYLSSQGFSITIVRNEFNFKDISHNFPGIKFFTIKDGLSESDVKSLGLLEFVLELNSVCEPLLKEFLTNHDDVVDFIIYDEFVYFPRRVAEDMNLPKMVFSPSSAATSISRCVLMENQSNGLLPPQDARSQLEETVPEFHPFRFKDLPFTAYGSMERLMILYENVSNRASSSGIIHNSSDCLENSFITTAQEKWGVPVYPVGPLHMTNSAMSCPSLFEEERNCLEWLEKQETSSVIYISMGSLAMTQDIEAVEMAMGFVQSNQPFLWVIRPGSINGQESLDFLPEQFNQTVTDGRGFVVKWAPQKEVLRHRAVGGFWNHGGWNSCLESISSGVPMICRPYSGDQRVNTRLMSHVWQTAYEIEGELERGAVEMAVRRLIVDQEGQEMRMRATILKEEVEASVTTEGSSHNSLNNLVHAIMMQIDEQ
B2: AtUGT76B1: UDP-glycosyl transferase from Arabidopsis thaliana, amino acid sequence SEQ ID NO: 28 (protein, listed as Arabidopsis thaliana)
chain: METRETKPVIFLFPFPLQGHLNPMFQLANIFFNRGFSITVIHTEFNSPNSSNFPHFTFVSIPDSLSEPESYPDVIEILHDLNSKCVAPFGDCLKKLISEEPTAACVIVDALWYFTHDLTEKFNFPRIVLRTVNLSAFVAFSKFHVLREKGYLSLQETKADSPVPELPYLRMKDLPWFQTEDPRSGDKLQIGVMKSLKSSSGIIFNAIEDLETDQLDEARIEFPVPLFCIGPFHRYVSASSSSLLAHDMTCLSWLDKQATNSVIYASLGSIASIDESEFLEIAWGLRNSNQPFLWVVRPGLIHGKEWIEILPKGFIENLEGRGKIVKWAPQPEVLAHRATGGFLTHCGWNSTLEGICEAIPMICRPSFGDQRVNARYINDVWKIGLHLENKVERLVIENAVRTLMTSSEGEEIRKRIMPMKETVEQCLKLGGSSFRNLENLIAYILSF
B3: CsUGT73B4: UDP-glycosyl transferase from Cannabis sativa, amino acid sequence SEQ ID NO: 34 (protein, listed as Cannabis sativa)
chain: MSKGHTIPLLHLARVLLNRHVTVTIFTTPANRSFITKFLPATSAAIVELPFPKNIPGVPNGVENTEDFPTMSMSMFYSLVLGTQNMKPDLDRALENIQTPVSFMVSDGFLWWTLDSASKLGFPRLVFYGMSHYAMAVYHSLFNSKKPKQTETETVVSDFPWIKLTRSEYDPSAQNGEDQSLAHEFMSKATEATNNSFGMIYNSFYELEPMFTDYWNQKVGPKSWPLGPLCLHDMKIESRGLVVHPWLDEKESSSVLYVAFGSQATVSSEQVREIAKGLEYSNVNFFWVLRKLEPEENKFLEEFEKRVKNRGIVVRDWVNQMEILKHKSVKGFFSHCGWNSVMESLSAGLPILGFPMMAEQHINAKMVVEEIKIGLRVKSYDGSLNGIVKSEEVSKMVKELMEGEVGKEMRKKVEEFAVMAHKAVQKGGSSWETLDLLLSSTKQRIHHY
B4: CsUGT73B1: UDP-glycosyl transferase from Cannabis sativa, amino acid sequence SEQ ID NO: 36 (protein, listed as Cannabis sativa)
chain: MSKEIWVVPFFGQGHLFPSMELCKQIASRNINTLLVIPSNLSFSIPSSLRQYPLLQIVEIQPTSAPSAQPGPDPIDQPPHGNPDQFEMGLENLLQAQVTGPDSVRPICAILDVMMDWTTEVFNKFDIPTIGFFTSGACSAAMEYGLWKAQPIDLKPGEVRLLPGLPEEMAVTYLDTNQRPHQPPGPPLHLFGVGHQGPFVDGAHRPPGPPPPPYLGRAGPRQRGPPKHGSQPPWVDGLKGSIALMINTCDYLERPFIEYLTKQIGKPVWGVGPLLPEQFWNSVSSNSILHDHEIRTNRQSNVSEDDVIQWLDSKPRGSVLYVCFGTEVSPSMEEYSELADALEASTQPFIWVVHSGTGRSGPPPSRGPTQEDYFPHGLASQVGPKGLIINGWAPQLLILSHSSIGGFLTHCGWNSTVEAIGLGVPLLAWPIRGDQNYNAKLVVAHLKLGFMISDNLSEKIKKHEIVKGIKTLMGDDDIKSRARNLAAIFQKGFPISSTTNLDVFRDMINNFT
B5: CsUGT75B2: UDP-glycosyl transferase from Cannabis sativa, amino acid sequence SEQ ID NO: 32 (protein, listed as Cannabis sativa)
chain: MVQPRFLILAFPLQGTINPCLNLANQLIRVANAQVTFVTSVNAHRLIMTTHTVATTSNNLLSFSPFFDGYDEGVTDGKGFHDHFVEFKRRGWQAVGDILELGFKEGRPYTCLVYSILLTWAADVAATHNVPASMFWMQPATVFDVYYYYFHGHKEIICANTKNHSFSLSFPRIPLTMNLKDLPSLMVDSNYSYILTMLHEMYKDFEKESNNTKIILVNTFDELEPDALRAINKFNLIGIGPLITSKTSFSFRNYIEWLNTKPKKTVVYVSFGSILILKKQQMDEIAKGLLEFGHPFLWVIKEKNSSSKEGVHEDNIKNELSYKEELEKLGMIVPWCSQMEVLRNESLGCFVTHCGWNSTLESIVSGVPVVAFPQWTDQQTNAKLIEEMWKIGVRVKPDEDGIVKSEEIKRCLELVMSKNENRTEIVKNVKKWQNLTKEAMREGGSSEKNLITFVKSIHQ

test system: CN3 yeast strain host cells; test: Detection of glycosylated cannabinoids and cannabinoid precursors in yeast cells expressing UDP-glycosyl transferase (HPLC-MS); assay type: cell-based; details: pellet or supernatant of recombinant yeast host cells transformed with the UGT
Source text: CN3 yeast strain host cells were transformed as described in Example 1 with one of the following heterologous UGT genes: (1) AtUGT73C6, (2) AtUGT73B4, (3) AtUGT71 D1, (4) AtUGT76E12, (5) AtUGT88A1, (6) HaUGT76G1-L, (7) At5g49690, (8) AtUGT76C4, (9) CsUGT73C6, (10) SrUGT76C1, (11) AtUGT85A3, (12) AtUGT73B1, (13) Atg65550, (14) AtUGT76B1, (15) ATUGT76B1, (16) CsUGT75B2, (17) CsUGT73B4, (18) CsUGT73B1, (19) CsUGT75D1-DN11028, and (20) CsUGT71D1-DN48028. The transformed host cells were pre-grown overnight in yeast extract peptone dextrose (YPD) growth medium and then back diluted into yeast extract peptone galactose (YPG) to OD600 = 0.2. […] Strains were incubated for 20 h at 28° C. rotating at 600 RPM in an EPOCH|2 microplate reader (BioTek). Subsequently, samples were treated with an extraction solvent (80 % Acetonitrile, 20 % Methanol) for 1 hour rotating at 100 RPM. After 20 minutes centrifugation at 12,000 RPM, the supernatant was filtered with a basix 13 mm syringe filter (0.22 µm pore size, Nylon membrane) and transferred to a new tube for further analysis.
Glycosylated cannabinoid compounds and glycosylated cannabinoid precursor compounds were assayed in the supernatant and the cellular pellet employing HPLC and HPLC-MS analysis. HPLC and HPLC-MS analysis was carried out as described below to detect the following glycosylated cannabinoid and cannabinoid precursor compounds: CBGA monoglucoside, CBGA diglucoside, CBDA monoglucoside, CBDA diglucoside, CBGA glucuronic acid, CBD monoglucoside, CBD diglucoside, olivetolic acid monoglucoside (“OliAcid monoglucoside”), olivetolic acid diglucoside (“OliAcid diglucoside”).
HPLC analysis was carried out on an Agilent Technologies 1290 Infinity system, consisting of a vacuum degasser, a binary pump, a thermostated autosampler, a thermostated column compartment and a diode array detector (DAD). A Zorbax Eclipse Plus EC-18 column (2.1 × 50 mm, 1.8 µm, Agilent, USA) was used with a mobile phase composed of 0.1% formic acid in both (A) water with 0.2 % Formic Acid and (B) Acetonitrile with 0.2 % Formic Acid. The chromatographic conditions were set as follows: 0.0-8.0 min linear gradient from 5 to 95% B; 8.1-9.09 min […], 9.10-11.0 min 5 to 95% A for equilibration of the column with the initial conditions. The flow rate was set at 0.4 ml/min. The column temperature was set at 40° C. The sample injection volume was 5 µL. The UV/DAD acquisitions were carried out in the range 190-400 nm and chromatograms were acquired at 265 and 350 nm.
HPLC-MS analysis was carried out to confirm the identity of the HPLC peaks using an Agilent Technologies 6530 Accurate-Mass quadrupole time of flight (QToF) mass spectrometer operating in negative ionization (ESI -) mode. The mass spectrometer experimental parameters were set as follows: the capillary voltage was 3.5 kV, the nebulizer (N2) pressure was 35 psi, the drying gas temperature was 350° C., the drying gas flow was 11 L/min and the skimmer voltage was 65 V. Data were acquired by Agilent Mass Hunter software. The mass spectrometer was operated in full-scan mode in the m/z range 50-1100. Extracted ion chromatograms (EICs) were obtained with an accuracy of 10 ppm m/z from total ion chromatogram (TIC) employing the m/z corresponding to the molecular ions [M-H]^- 385.1504 for Olivetolic Acid Mono-Glucoside, 547.2032 for Olivetolic Acid di-Glucoside, 521.2756 for CBGA Mono-Glucoside, 683.3284 for CBGA Di-Glucoside, 535.2549 for CBGA Glucuronic Acid, 519.2600 for CBDA Mono-Glucoside, 475.2701 for CBD Mono-Glucoside, 637.3302 for CBD Di-Glucoside.
The glycosylated cannabinoid compounds and glycosylated cannabinoid precursor compounds were detected in a relative and semi-quantitative fashion. […]

| Molecule | production of glycosylated cannabinoids or cannabinoid precursor compounds |
| --- | --- |
| B1 | No production |
| B2 | No production |
| B3 | No production |
| B4 | No production |
| B5 | No production |
